In assay [1] the target is T1, TpoR-IL6ST chimeric receptor on HEK293T SIE-bla reporter cells (clone CR2-9) (human, UniProt P40238 26-527; P40189 651-918, limits assumed).
T1 sequence (looked up): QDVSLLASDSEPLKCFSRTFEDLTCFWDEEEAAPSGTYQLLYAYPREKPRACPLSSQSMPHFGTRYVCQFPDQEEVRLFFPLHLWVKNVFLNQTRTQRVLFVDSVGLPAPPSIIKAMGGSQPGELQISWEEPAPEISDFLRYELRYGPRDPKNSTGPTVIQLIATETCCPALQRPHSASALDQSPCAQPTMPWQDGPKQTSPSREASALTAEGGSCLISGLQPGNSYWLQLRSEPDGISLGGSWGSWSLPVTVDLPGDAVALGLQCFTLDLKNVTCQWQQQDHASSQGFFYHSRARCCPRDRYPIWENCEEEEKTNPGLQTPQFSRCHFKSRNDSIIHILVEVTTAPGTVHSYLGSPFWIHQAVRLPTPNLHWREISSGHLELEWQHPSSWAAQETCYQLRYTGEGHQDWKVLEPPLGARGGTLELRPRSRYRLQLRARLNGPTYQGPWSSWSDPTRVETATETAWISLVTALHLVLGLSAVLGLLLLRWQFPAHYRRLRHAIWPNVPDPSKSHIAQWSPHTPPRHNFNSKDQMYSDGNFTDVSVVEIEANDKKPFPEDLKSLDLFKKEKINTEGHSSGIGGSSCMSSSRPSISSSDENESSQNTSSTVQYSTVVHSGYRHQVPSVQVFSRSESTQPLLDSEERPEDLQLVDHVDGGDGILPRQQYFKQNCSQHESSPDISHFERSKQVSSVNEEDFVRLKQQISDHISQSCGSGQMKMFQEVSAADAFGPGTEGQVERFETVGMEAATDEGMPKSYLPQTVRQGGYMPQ
Put plainly: cell-based or functional assay.

Assay [2] concerns the target T2, wild-type human TpoR on Ba/F3-hMpl cells (human, UniProt P40238 26-635).
T2 sequence (looked up): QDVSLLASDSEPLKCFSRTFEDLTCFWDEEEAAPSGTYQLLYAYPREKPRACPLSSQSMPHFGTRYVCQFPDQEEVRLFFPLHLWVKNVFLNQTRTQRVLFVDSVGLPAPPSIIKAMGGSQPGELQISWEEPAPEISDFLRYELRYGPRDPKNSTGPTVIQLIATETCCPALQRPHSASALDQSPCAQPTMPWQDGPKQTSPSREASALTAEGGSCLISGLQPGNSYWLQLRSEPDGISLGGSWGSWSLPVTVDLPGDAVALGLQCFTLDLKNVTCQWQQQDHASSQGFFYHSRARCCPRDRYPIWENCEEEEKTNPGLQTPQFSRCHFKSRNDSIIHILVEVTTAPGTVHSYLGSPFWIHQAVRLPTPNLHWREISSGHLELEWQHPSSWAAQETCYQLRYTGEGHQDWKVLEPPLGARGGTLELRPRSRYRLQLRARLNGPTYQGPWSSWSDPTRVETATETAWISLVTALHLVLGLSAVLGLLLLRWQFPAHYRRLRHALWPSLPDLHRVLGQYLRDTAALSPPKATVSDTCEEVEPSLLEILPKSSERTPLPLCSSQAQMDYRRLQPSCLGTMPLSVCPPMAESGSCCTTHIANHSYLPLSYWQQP
Put plainly: cell-based or functional assay.

Assay [3] concerns the target T3, extracellular domain of hEpoR-his tag (human, UniProt P19235 25-250).
T3 construct: extracellular domain; also called EpoR ECD-his tag monomer protein; His-tagged monomeric EpoR; not shown: His tag
T3 sequence (looked up): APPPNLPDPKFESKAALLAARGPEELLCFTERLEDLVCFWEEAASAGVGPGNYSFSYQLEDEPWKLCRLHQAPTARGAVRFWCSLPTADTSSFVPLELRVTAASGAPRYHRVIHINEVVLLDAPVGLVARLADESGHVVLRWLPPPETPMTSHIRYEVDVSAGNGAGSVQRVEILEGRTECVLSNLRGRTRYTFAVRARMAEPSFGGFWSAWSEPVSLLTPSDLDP
Put plainly: pull-down: antibody mixed with hEpoR extracellular domain-his tag, captured on His-tag Dynabeads, bound antibody detected with anti-Fc:HRP (OD405nm); control is beads without EpoR. Here is the method: The single antibodies V-1 and V-3 and the bispecific antibody V-1/V-3 (BsAb) that were generated using “Knob-into-ole” technology were purified from HEK293F cells. (A) The purified proteins were analyzed using 7% Tris-Acetate gels with TA running buffer. (B) Antibody binding to the EpoR was tested by a “pull down” experiment. Different antibodies were mixed with the extracellular domain of hEpoR-his tag. The complexes were captured with His-tag Dynabeads and bound antibodies were detected with an anti-Fc:HRP antibody.

The target of assay [4] is T3, extracellular domain of hEpoR-his tag. Put plainly: BLI (Octet Red), scFv-Fc captured on anti-human IgG sensors, EpoR ectodomain monomer titrated, 1:1 model; V-1; not competed by EPO. Here is the method: (§1) Kinetic characterization using bio-layer interferometry (BLI). Experiments were performed using the Octet Red (Fortebio Inc.). The scFv Fc fusion proteins were captured with anti-Human IgG Capture (AHC) Biosensors (kinetics grade Cat# 18-5060). A titration series of the purified EpoR ectodomain monomer protein was measured against the immobilized scFv Fc in the association/dissociation cycle. The data set was fit to a 1:1 binding model to determine ka, kd and Kd.
(§2) Thus, both EPO and the bispecific antibody achieve the obligatory asymmetric binding to the EpoR that is necessary for full agonist activity, albeit in different ways. In the case of EPO, asymmetry is achieved by the use of two distinct interfaces (site 1 and site 2) that bind with different affinities to a single site in the homodimeric EpoR (Watowich, J. Invest. Med. 59:1067, 2011). By contrast, the heterodimeric bispecific antibody achieves asymmetry by using its two different binding specifies to interact with different sites on the EpoR (FIG. 6).
(Biolayer interferometry detects binding as a change in optical thickness at a sensor tip.)

The target is the same in assay [5]. Put plainly: BLI (Octet Red), scFv-Fc captured on anti-human IgG sensors, EpoR ectodomain monomer titrated, 1:1 model; V-3; competed by EPO. Here is the method:
as §1, §2

As a reminder, the Kd is the free concentration of one partner at which half of the binding sites on the other are occupied at equilibrium, for simple one-to-one binding. High values mean a looser complex, low ones a tighter complex.

B1: 3D9 TpoR agonist antibody (Fc fusion, not shown: a dimerising Fc or GST)
scFv: MAQVQLVQSGAEVRKVGSSVKVSCKASRDTFNTYGISWVRQAPGQGLEWMGGIIPIFGTADYAQKFRGRVTITADESTSTAYMELSSLRSEDTAVYYCARDRKLGGSDYWGQGTLVTVSSGGGGSGGGGSGGGGSDIVMTQSPSSVSASVGDKVTITCRASQGLGRWLAWYQQEPGKAPKLLIYAASTLQRGVPSRFSGSGSGTDFTLTISSLQPEDFATYYCQQSNSFPWTFGQGTKLEIKR
As to B1, the “EC50, short-term fluorescence (FRET beta-lactamase) reporter assay” value in assay [1] is ~0.01 nM. Also, in assay [2], the “EC50, long-term proliferation assay (MTS) of Ba/F3-hMPL cells” value worked out at 0.005 nM.

B2: heterodimeric bispecific antibody V-1/V-3 (bispecific antibody, V domains shown)
VH 1: MAQVQLVQSGAEVKKPGSSVKVSCKASGGTFSSYAISWVRQAPGQGLEWMGGIIPIFGTANYAQKFQGRVTITADESTSTAYMELSSLRSEDTAVYYCARDQGYYYGSGGLDYWGQGTLVTVSS
VL 1: DIQMTQSPSSLSASVGDRVTITCRASQSISSYLNWYQQKPGKAPKLLIYAASSLQSGVPSRFSGSGSGTDFTLTISSLQPEDFATYYCLQDYNYPLTFGGGTKVEIK
VH 2: MAQVQLVQSGAEVKKPGASVKVSCKASGYTFTSYGISWVRQAPGQGLEWMGWISAYNGNTNYAQKLQGRVTMTTDTSTSTAYMELRSLRSDDTAVYYCARGVAAALSYWGQGTLVTVSS
VL 2: QSALTQPASVSGSPGQSITISCTGTSSDVGAYNYVSWYQQHPGKAPKLMIYEVTKRPSGVPDRFSGSKSGNTASLTISGLQAEDEADYYCISFTASSTWAFGGGTKLTVLG
notes: Heterodimer of two scFv-Fc chains (human IgG1 Fc, hinge to CH3) made by knobs-into-hole engineering: T366Y in the CH3 of one monomer and Y407T in the other; also called BsAb; bispecific heterodimeric antibody
Take B2: in assay [3], the binding result is “binds”.

B3: EpoR antibody V-1 (scFv-Fc homodimer) (Fc fusion)
VH: B2 VH 1
VL: B2 VL 1
In turn, B3 registered a Kd in assay [4] of 26 nM.

B4: EpoR antibody V-3 (scFv-Fc homodimer) (Fc fusion)
VH: B2 VH 2
VL: B2 VL 2
For the molecule B4, the Kd in assay [5] came out at 45 nM. In other words, the double-digit nanomolar range.

The record behind these values is patent US20180002425A1 (Scripps Research, published 2018).
